Where two headings read alike, the source gives them in different places.
T1: mouse PD-1 (mouse, UniProt Q02242 25-167, limits assumed)
T1 construct: also called mPD-1
T1 sequence (looked up): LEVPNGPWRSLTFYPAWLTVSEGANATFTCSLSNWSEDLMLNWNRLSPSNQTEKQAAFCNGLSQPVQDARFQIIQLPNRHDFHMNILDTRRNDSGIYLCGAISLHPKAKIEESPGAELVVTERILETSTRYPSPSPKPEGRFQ


Experiments:
mouse PD-1 [1] = biological target: T1, mouse PD-1; test: affinity measured in PD-L2-Fc format; method not named
human PD-1 [2] = biological target: T2, human PD-1 (human, UniProt Q15116 25-167, limits assumed); test: as above
T2 construct: nivolumab is called an anti-human PD-1 antibody; also called hPD-1
T2 sequence (Q15116 25-167 limits assumed): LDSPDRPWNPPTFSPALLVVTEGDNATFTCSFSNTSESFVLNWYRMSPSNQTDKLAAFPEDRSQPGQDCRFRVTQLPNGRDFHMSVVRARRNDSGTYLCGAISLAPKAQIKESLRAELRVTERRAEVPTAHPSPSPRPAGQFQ

human PD-1 [3] = biological target: T2, human PD-1; test: Kd to PD-1 as printed for the construct in Table 19; method not told there; same value as for the parental anti-PD-1 antibody
[4] = biological target: T3, human IL-12 receptor complex (human, UniProt P42701 24-662; Q99665 24-862); test: cell-based or functional assay
T3 sequence (Q99665 24-862, chain 2 of 2, other chains not shown): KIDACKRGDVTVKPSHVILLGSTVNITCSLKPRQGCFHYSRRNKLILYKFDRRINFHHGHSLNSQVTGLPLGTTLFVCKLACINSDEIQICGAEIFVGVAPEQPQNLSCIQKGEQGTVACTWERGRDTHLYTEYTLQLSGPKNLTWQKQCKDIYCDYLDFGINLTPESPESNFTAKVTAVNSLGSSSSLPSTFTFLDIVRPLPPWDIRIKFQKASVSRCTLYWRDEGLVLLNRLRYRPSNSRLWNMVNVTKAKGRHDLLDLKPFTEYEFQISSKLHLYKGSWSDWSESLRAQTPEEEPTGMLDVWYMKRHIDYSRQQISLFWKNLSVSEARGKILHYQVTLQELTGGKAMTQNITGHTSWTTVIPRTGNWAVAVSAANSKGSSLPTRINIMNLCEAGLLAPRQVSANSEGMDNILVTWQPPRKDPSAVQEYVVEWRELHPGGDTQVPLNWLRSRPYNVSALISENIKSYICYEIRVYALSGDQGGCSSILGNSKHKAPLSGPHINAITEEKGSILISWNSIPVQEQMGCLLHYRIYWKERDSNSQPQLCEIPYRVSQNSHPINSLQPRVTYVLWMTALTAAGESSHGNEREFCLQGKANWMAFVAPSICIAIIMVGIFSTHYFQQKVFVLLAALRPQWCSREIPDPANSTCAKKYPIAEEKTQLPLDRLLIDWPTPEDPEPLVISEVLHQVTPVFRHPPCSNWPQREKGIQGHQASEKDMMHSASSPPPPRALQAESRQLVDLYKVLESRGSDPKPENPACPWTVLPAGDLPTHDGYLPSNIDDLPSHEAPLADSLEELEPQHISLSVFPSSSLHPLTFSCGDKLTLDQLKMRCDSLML

[5] = biological target: T4, human PD-1 overexpressed on HEK-Blue reporter cells (human, UniProt Q15116 25-288); test: cell-based or functional assay
T4 sequence (Q15116 25-288): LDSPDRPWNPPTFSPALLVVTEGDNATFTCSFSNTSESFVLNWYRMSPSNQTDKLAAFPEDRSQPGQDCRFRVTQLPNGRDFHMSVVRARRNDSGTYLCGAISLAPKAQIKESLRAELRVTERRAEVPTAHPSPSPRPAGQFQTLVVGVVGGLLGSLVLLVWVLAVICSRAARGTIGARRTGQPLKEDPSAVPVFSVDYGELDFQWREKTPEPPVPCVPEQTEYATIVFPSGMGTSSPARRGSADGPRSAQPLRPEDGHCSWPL

human PD-1 [6] = biological target: T2, human PD-1; test: Kd column of Table 18; same value as the antibody in Table 17
mouse PD-1 [7] = biological target: T1, mouse PD-1; test: method not named
human PD-1 [8] = biological target: T2, human PD-1; test: method not named
mouse PD-1 [9] = biological target: T1, mouse PD-1; test: Kd column of Table 22; same value as PD-L1(mut2)-Fc in Table 20
[10] = biological target: T3, human IL-12 receptor complex; test: cell-based or functional assay; remark: listed apart in the source
[11] = biological target: T4, human PD-1 overexpressed on HEK-Blue …; test: cell-based or functional assay; remark: listed apart in the source

| Binder | Kd (mouse PD-1 [1]) [nM] | Kd (human PD-1 [2]) [nM] | Kd (human PD-1 [3]) [nM] | IL-12 signal transduction, % of rIL-12, HEK-IL-12 cells [4] [%] | IL-12 signal transduction, % of rIL-12, HEK-IL-12-PD-1 (high) [5] [%] | IL-12 signal transduction, % of rIL-12, HEK-IL-12-PD-1 (low) [5] [%] | Kd (human PD-1 [6]) [nM] | Kd (mouse PD-1 [7]) [nM] | Kd (human PD-1 [8]) [nM] | Kd (mouse PD-1 [9]) [nM] | IL-12 signal transduction, % of rIL-12, HEK-IL-12 cells [10] [%] | IL-12 signal transduction, % of rIL-12, HEK-IL-12-PD-1 cells [11] [%] |
| --- | --- | --- | --- | --- | --- | --- | --- | --- | --- | --- | --- | --- |
| PD-L2(wt)-Fc (Fc fusion, also called None) chain 1: LFTVTVPKELYIIEHGSNVTLECNFDTGSHVNLGAITASLQKVENDTSPHRERATLLEEQLPLGKASFHIPQVQVRDEGQYQCIIIYGVAWDYKYLTLKVKASYRKINTHILKVPETDEVELTCQATGYPLAEVSWPNVSVPANTSHSRTPEGLYQVTSVLRLKPPPGRNFSCVFWNTHVRELTLASIDLQSQMEPRTHPTDKTHTCPPCPAPEDEGGPSVFLFPPKPKDTLMISRTPEVTCVVVDVSHEDPEVKFNWYVDGVEVHNAKTKPREEQYNSTYRVVSVLTVLHQDWLNGKEYKCKVSNKALPAPIEKTISKAKGQPREPQVYVYPPSREEMTKNQVSLTCLVKGFYPSDIAVEWESNGQPENNYKTTPPVLDEDGSFALVSKLTVDKSRWQQGNVFSCSVMHEALHNHYTQKSLSLSPGK chain 2: LFTVTVPKELYIIEHGSNVTLECNFDTGSHVNLGAITASLQKVENDTSPHRERATLLEEQLPLGKASFHIPQVQVRDEGQYQCIIIYGVAWDYKYLTLKVKASYRKINTHILKVPETDEVELTCQATGYPLAEVSWPNVSVPANTSHSRTPEGLYQVTSVLRLKPPPGRNFSCVFWNTHVRELTLASIDLQSQMEPRTHPTDKTHTCPPCPAPEKKGGPSVFLFPPKPKDTLMISRTPEVTCVVVDVSHEDPEVKFNWYVDGVEVHNAKTKPREEQYNSTYRVVSVLTVLHQDWLNGKEYKCKVSNKALPAPIEKTISKAKGQPREPQVYVLPPSREEMTKNQVSLLCLVKGFYPSDIAVEWESNGQPENRYMTWPPVLDSDGSFFLYSKLTVDKSRWQQGNVFSCSVMHEALHNHYTQKSLSLSPGK | 980 | 1200 | – | – | – | – | – | – | – | – | – | – |
| IL-12(E59A/F60A)/anti-PD-1(D100N) (other) heavy 1: QVQLVESGGGVVQPGRSLRLDCKASGITFSNSGMHWVRQAPGKGLEWVAVIWYDGSKRYYADSVKGRFTISRDNSKNTLFLQMNSLRAEDTAVYYCATNNDYWGQGTLVTVSSASTKGPSVFPLAPSSKSTSGGTAALGCLVKDYFPEPVTVSWNSGALTSGVHTFPAVLQSSGLYSLSSVVTVPSSSLGTQTYICNVNHKPSNTKVDKKVEPKSCDKPGSGIWELKKDVYVVELDWYPDAPGEMVVLTCDTPEEDGITWTLDQSSEVLGSGKTLTIQVKAAGDAGQYTCHKGGEVLSHSLLLLHKKEDGIWSTDILKDQKEPKNKTFLRCEAKNYSGRFTCWWLTTISTDLTFSVKSSRGSSDPQGVTCGAATLSAERVRGDNKEYEYSVECQEDSACPAAEESLPIEVMVDAVHKLKYENYTSSFFIRDIIKPDPPKNLQLKPLKNSRQVEVSWEYPDTWSTPHSYFSLTFCVQVQGKSKREKKDRVFTDKTSATVICRKNASISVRAQDRYYSSSWSEWASVPCSGGGGSGGGGSGGGGSGGGGSGRNLPVATPDPGMFPCLHHSQNLLRAVSNMLQKARQTLEFYPCTSEEIDHEDITKDKTSTVEACLPLELTKNESCLNSRETSFITNGSCLASRKTSFMMALCLSSIYEDLKMYQVEFKTMNAKLLMDPKRQIFLDQNMLAVIDELMQALNFNSETVPQKSSLEEPDFYKTKIKLCILLHAFRIRAVTIDRVMSYLNASDKTHTCPPCPAPEDEGGPSVFLFPPKPKDTLMISRTPEVTCVVVDVSHEDPEVKFNWYVDGVEVHNAKTKPREEQYNSTYRVVSVLTVLHQDWLNGKEYKCKVSNKALPAPIEKTISKAKGQPREPQVYVYPPSREEMTKNQVSLTCLVKGFYPSDIAVEWESNGQPENNYKTTPPVLDEDGSFALVSKLTVDKSRWQQGNVFSCSVMHEALHNHYTQKSLSLSPGK heavy 2: QVQLVESGGGVVQPGRSLRLDCKASGITFSNSGMHWVRQAPGKGLEWVAVIWYDGSKRYYADSVKGRFTISRDNSKNTLFLQMNSLRAEDTAVYYCATNNDYWGQGTLVTVSSASTKGPSVFPLAPSSKSTSGGTAALGCLVKDYFPEPVTVSWNSGALTSGVHTFPAVLQSSGLYSLSSVVTVPSSSLGTQTYICNVNHKPSNTKVDKKVEPKSCDKTHTCPPCPAPEKKGGPSVFLFPPKPKDTLMISRTPEVTCVVVDVSHEDPEVKFNWYVDGVEVHNAKTKPREEQYNSTYRVVSVLTVLHQDWLNGKEYKCKVSNKALPAPIEKTISKAKGQPREPQVYVLPPSREEMTKNQVSLLCLVKGFYPSDIAVEWESNGQPENRYMTWPPVLDSDGSFFLYSKLTVDKSRWQQGNVFSCSVMHEALHNHYTQKSLSLSPGK light: not shown | – | – | 25 | < 0.2 | 38 | 33 | 25 | – | – | – | – | – |
| IL-12(E59A/F60A)/anti-PD-1(D100R) (other) heavy 1: QVQLVESGGGVVQPGRSLRLDCKASGITFSNSGMHWVRQAPGKGLEWVAVIWYDGSKRYYADSVKGRFTISRDNSKNTLFLQMNSLRAEDTAVYYCATNRDYWGQGTLVTVSSASTKGPSVFPLAPSSKSTSGGTAALGCLVKDYFPEPVTVSWNSGALTSGVHTFPAVLQSSGLYSLSSVVTVPSSSLGTQTYICNVNHKPSNTKVDKKVEPKSCDKPGSGIWELKKDVYVVELDWYPDAPGEMVVLTCDTPEEDGITWTLDQSSEVLGSGKTLTIQVKAAGDAGQYTCHKGGEVLSHSLLLLHKKEDGIWSTDILKDQKEPKNKTFLRCEAKNYSGRFTCWWLTTISTDLTFSVKSSRGSSDPQGVTCGAATLSAERVRGDNKEYEYSVECQEDSACPAAEESLPIEVMVDAVHKLKYENYTSSFFIRDIIKPDPPKNLQLKPLKNSRQVEVSWEYPDTWSTPHSYFSLTFCVQVQGKSKREKKDRVFTDKTSATVICRKNASISVRAQDRYYSSSWSEWASVPCSGGGGSGGGGSGGGGSGGGGSGRNLPVATPDPGMFPCLHHSQNLLRAVSNMLQKARQTLEFYPCTSEEIDHEDITKDKTSTVEACLPLELTKNESCLNSRETSFITNGSCLASRKTSFMMALCLSSIYEDLKMYQVEFKTMNAKLLMDPKRQIFLDQNMLAVIDELMQALNFNSETVPQKSSLEEPDFYKTKIKLCILLHAFRIRAVTIDRVMSYLNASDKTHTCPPCPAPEDEGGPSVFLFPPKPKDTLMISRTPEVTCVVVDVSHEDPEVKFNWYVDGVEVHNAKTKPREEQYNSTYRVVSVLTVLHQDWLNGKEYKCKVSNKALPAPIEKTISKAKGQPREPQVYVYPPSREEMTKNQVSLTCLVKGFYPSDIAVEWESNGQPENNYKTTPPVLDEDGSFALVSKLTVDKSRWQQGNVFSCSVMHEALHNHYTQKSLSLSPGK heavy 2: QVQLVESGGGVVQPGRSLRLDCKASGITFSNSGMHWVRQAPGKGLEWVAVIWYDGSKRYYADSVKGRFTISRDNSKNTLFLQMNSLRAEDTAVYYCATNRDYWGQGTLVTVSSASTKGPSVFPLAPSSKSTSGGTAALGCLVKDYFPEPVTVSWNSGALTSGVHTFPAVLQSSGLYSLSSVVTVPSSSLGTQTYICNVNHKPSNTKVDKKVEPKSCDKTHTCPPCPAPEKKGGPSVFLFPPKPKDTLMISRTPEVTCVVVDVSHEDPEVKFNWYVDGVEVHNAKTKPREEQYNSTYRVVSVLTVLHQDWLNGKEYKCKVSNKALPAPIEKTISKAKGQPREPQVYVLPPSREEMTKNQVSLLCLVKGFYPSDIAVEWESNGQPENRYMTWPPVLDSDGSFFLYSKLTVDKSRWQQGNVFSCSVMHEALHNHYTQKSLSLSPGK light: not shown | – | – | 910 | < 0.2 | 10 | 3 | 910 | – | – | – | – | – |
| IL-12(E59A/F60A)/PD-L1(mut2)-Fc (Fc fusion, also called IL-12(E59A/F60A)/PD-L1(I54Q/E58M/R113T/M115L/S117A/G119K)-Fc) chain 1: FTVTVPKDLYVVEYGSNMTIECKFPVEKQLDLAALQVYWMMEDKNIIQFVHGEEDLKVQHSSYRQRARLLKDQLSLGNAALQITDVKLQDAGVYTCLIAYKGADYKRITVKVNAPYNKINQRILVVDPVTSEHELTCQAEGYPKAEVIWTSSDHQVLSGKTTTTNSKREEKLFNVTSTLRINTTTNEIFYCTFRRLDPEENHTAELVIPELPLAHPPNERGGGGSGGGIWELKKDVYVVELDWYPDAPGEMVVLTCDTPEEDGITWTLDQSSEVLGSGKTLTIQVKAAGDAGQYTCHKGGEVLSHSLLLLHKKEDGIWSTDILKDQKEPKNKTFLRCEAKNYSGRFTCWWLTTISTDLTFSVKSSRGSSDPQGVTCGAATLSAERVRGDNKEYEYSVECQEDSACPAAEESLPIEVMVDAVHKLKYENYTSSFFIRDIIKPDPPKNLQLKPLKNSRQVEVSWEYPDTWSTPHSYFSLTFCVQVQGKSKREKKDRVFTDKTSATVICRKNASISVRAQDRYYSSSWSEWASVPCSGGGGSGGGSGGGGSRNLPVATPDPGMFPCLHHSQNLLRAVSNMLQKARQTLEFYPCTSEEIDHEDITKDKTSTVEACLPLELTKNESCLNSRETSFITNGSCLASRKTSFMMALCLSSIYEDLKMYQVEFKTMNAKLLMDPKRQIFLDQNMLAVIDELMQALNFNSETVPQKSSLEEPDFYKTKIKLCILLHAFRIRAVTIDRVMSYLNASGGGGSGGGDKTHTCPPCPAPEDEGGPSVFLFPPKPKDTLMISRTPEVTCVVVDVSHEDPEVKFNWYVDGVEVHNAKTKPREEQYNSTYRVVSVLTVLHQDWLNGKEYKCKVSNKALPAPIEKTISKAKGQPREPQVYVYPPSREEMTKNQVSLTCLVKGFYPSDIAVEWESNGQPENNYKTTPPVLDEDGSFALVSKLTVDKSRWQQGNVFSCSVMHEALHNHYTQKSLSLSPGK chain 2: FTVTVPKDLYVVEYGSNMTIECKFPVEKQLDLAALQVYWMMEDKNIIQFVHGEEDLKVQHSSYRQRARLLKDQLSLGNAALQITDVKLQDAGVYTCLIAYKGADYKRITVKVNAPYNKINQRILVVDPVTSEHELTCQAEGYPKAEVIWTSSDHQVLSGKTTTTNSKREEKLFNVTSTLRINTTTNEIFYCTFRRLDPEENHTAELVIPELPLAHPPNERGGGGSGGGDKTHTCPPCPAPEKKGGPSVFLFPPKPKDTLMISRTPEVTCVVVDVSHEDPEVKFNWYVDGVEVHNAKTKPREEQYNSTYRVVSVLTVLHQDWLNGKEYKCKVSNKALPAPIEKTISKAKGQPREPQVYVLPPSREEMTKNQVSLLCLVKGFYPSDIAVEWESNGQPENRYMTWPPVLDSDGSFFLYSKLTVDKSRWQQGNVFSCSVMHEALHNHYTQKSLSLSPGK | – | – | – | – | – | – | – | ~100 | ~100 | 120 | < 0.2 | 24 |

Reference: patent publication US20230167164A1 (IMMUNOWAKE, published 2023)
